According to patent US20160333062A1 (REGENTS OF THE UNIVERSITY OF COLORADO A BODY CORPORATE, published 2016):
Non-standard residues stand in square brackets, D forms with d. No end group written: not given here.

B1: D-Piscidin 1 V12K (peptide)
peptide: [dF][dF][dH][dH][dI][dF][dR]G[dI][dV][dH][dK]G[dK][dT][dI][dH][dR][dL][dV][dT]G-NH2
modifications: N-terminus assumed
SMILES: CC[C@@H](C)[C@@H](NC(=O)CNC(=O)[C@@H](CCCNC(=N)N)NC(=O)[C@@H](Cc1ccccc1)NC(=O)[C@H](NC(=O)[C@@H](Cc1c[nH]cn1)NC(=O)[C@@H](Cc1c[nH]cn1)NC(=O)[C@@H](Cc1ccccc1)NC(=O)[C@H](N)Cc1ccccc1)[C@H](C)CC)C(=O)N[C@@H](C(=O)N[C@H](Cc1c[nH]cn1)C(=O)N[C@H](CCCCN)C(=O)NCC(=O)N[C@H](CCCCN)C(=O)N[C@@H](C(=O)N[C@@H](C(=O)N[C@H](Cc1c[nH]cn1)C(=O)N[C@H](CCCNC(=N)N)C(=O)N[C@H](CC(C)C)C(=O)N[C@@H](C(=O)N[C@@H](C(=O)NCC(N)=O)[C@H](C)O)C(C)C)[C@H](C)CC)[C@H](C)O)C(C)C
notes: Synthetic all-D analog
B2: D-Dermaseptin S4 L7K, A14K (peptide)
peptide: [dA][dL][dW][dM][dT][dL][dK][dK][dK][dV][dL][dK][dA][dK][dA][dK][dA][dL][dN][dA][dV][dL][dV]G[dA][dN][dA]-NH2
modifications: N-terminus assumed
SMILES: CSCC[C@@H](NC(=O)[C@@H](Cc1c[nH]c2ccccc12)NC(=O)[C@@H](CC(C)C)NC(=O)[C@@H](C)N)C(=O)N[C@@H](C(=O)N[C@H](CC(C)C)C(=O)N[C@H](CCCCN)C(=O)N[C@H](CCCCN)C(=O)N[C@H](CCCCN)C(=O)N[C@@H](C(=O)N[C@H](CC(C)C)C(=O)N[C@H](CCCCN)C(=O)N[C@H](C)C(=O)N[C@H](CCCCN)C(=O)N[C@H](C)C(=O)N[C@H](CCCCN)C(=O)N[C@H](C)C(=O)N[C@H](CC(C)C)C(=O)N[C@H](CC(N)=O)C(=O)N[C@H](C)C(=O)N[C@@H](C(=O)N[C@H](CC(C)C)C(=O)N[C@@H](C(=O)NCC(=O)N[C@H](C)C(=O)N[C@H](CC(N)=O)C(=O)N[C@H](C)C(N)=O)C(C)C)C(C)C)C(C)C)[C@H](C)O
notes: Synthetic all-D analog; also called D-Dermaseptin S4 L7K, A14K (27-mer)
B3: D-Piscidin 1 I9K (peptide)
peptide: [dF][dF][dH][dH][dI][dF][dR]G[dK][dV][dH][dV]G[dK][dT][dI][dH][dR][dL][dV][dT]G-NH2
modifications: N-terminus assumed
SMILES: CC[C@@H](C)[C@@H](NC(=O)[C@@H](Cc1c[nH]cn1)NC(=O)[C@@H](Cc1c[nH]cn1)NC(=O)[C@@H](Cc1ccccc1)NC(=O)[C@H](N)Cc1ccccc1)C(=O)N[C@H](Cc1ccccc1)C(=O)N[C@H](CCCNC(=N)N)C(=O)NCC(=O)N[C@H](CCCCN)C(=O)N[C@@H](C(=O)N[C@H](Cc1c[nH]cn1)C(=O)N[C@@H](C(=O)NCC(=O)N[C@H](CCCCN)C(=O)N[C@@H](C(=O)N[C@@H](C(=O)N[C@H](Cc1c[nH]cn1)C(=O)N[C@H](CCCNC(=N)N)C(=O)N[C@H](CC(C)C)C(=O)N[C@@H](C(=O)N[C@@H](C(=O)NCC(N)=O)[C@H](C)O)C(C)C)[C@H](C)CC)[C@H](C)O)C(C)C)C(C)C
notes: Synthetic all-D analog; also called D-Piscidin I9K
B4: D-Piscidin 1 (peptide)
peptide: [dF][dF][dH][dH][dI][dF][dR]G[dI][dV][dH][dV]G[dK][dT][dI][dH][dR][dL][dV][dT]G-NH2
modifications: N-terminus assumed
SMILES: CC[C@@H](C)[C@@H](NC(=O)CNC(=O)[C@@H](CCCNC(=N)N)NC(=O)[C@@H](Cc1ccccc1)NC(=O)[C@H](NC(=O)[C@@H](Cc1c[nH]cn1)NC(=O)[C@@H](Cc1c[nH]cn1)NC(=O)[C@@H](Cc1ccccc1)NC(=O)[C@H](N)Cc1ccccc1)[C@H](C)CC)C(=O)N[C@@H](C(=O)N[C@H](Cc1c[nH]cn1)C(=O)N[C@@H](C(=O)NCC(=O)N[C@H](CCCCN)C(=O)N[C@@H](C(=O)N[C@@H](C(=O)N[C@H](Cc1c[nH]cn1)C(=O)N[C@H](CCCNC(=N)N)C(=O)N[C@H](CC(C)C)C(=O)N[C@@H](C(=O)N[C@@H](C(=O)NCC(N)=O)[C@H](C)O)C(C)C)[C@H](C)CC)[C@H](C)O)C(C)C)C(C)C
notes: also called native D-Piscidin 1
B5: D-Piscidin 1 G13K (peptide)
peptide: [dF][dF][dH][dH][dI][dF][dR]G[dI][dV][dH][dV][dK][dK][dT][dI][dH][dR][dL][dV][dT]G-NH2
modifications: N-terminus assumed
SMILES: CC[C@@H](C)[C@@H](NC(=O)CNC(=O)[C@@H](CCCNC(=N)N)NC(=O)[C@@H](Cc1ccccc1)NC(=O)[C@H](NC(=O)[C@@H](Cc1c[nH]cn1)NC(=O)[C@@H](Cc1c[nH]cn1)NC(=O)[C@@H](Cc1ccccc1)NC(=O)[C@H](N)Cc1ccccc1)[C@H](C)CC)C(=O)N[C@@H](C(=O)N[C@H](Cc1c[nH]cn1)C(=O)N[C@@H](C(=O)N[C@H](CCCCN)C(=O)N[C@H](CCCCN)C(=O)N[C@@H](C(=O)N[C@@H](C(=O)N[C@H](Cc1c[nH]cn1)C(=O)N[C@H](CCCNC(=N)N)C(=O)N[C@H](CC(C)C)C(=O)N[C@@H](C(=O)N[C@@H](C(=O)NCC(N)=O)[C@H](C)O)C(C)C)[C@H](C)CC)[C@H](C)O)C(C)C)C(C)C
notes: Synthetic all-D analog; also called D-Piscidin G13K
B6: D-Dermaseptin S4 L7K (peptide)
peptide: [dA][dL][dW][dM][dT][dL][dK][dK][dK][dV][dL][dK][dA][dA][dA][dK][dA][dL][dN][dA][dV][dL][dV]G[dA][dN][dA]-NH2
modifications: N-terminus assumed
SMILES: CSCC[C@@H](NC(=O)[C@@H](Cc1c[nH]c2ccccc12)NC(=O)[C@@H](CC(C)C)NC(=O)[C@@H](C)N)C(=O)N[C@@H](C(=O)N[C@H](CC(C)C)C(=O)N[C@H](CCCCN)C(=O)N[C@H](CCCCN)C(=O)N[C@H](CCCCN)C(=O)N[C@@H](C(=O)N[C@H](CC(C)C)C(=O)N[C@H](CCCCN)C(=O)N[C@H](C)C(=O)N[C@H](C)C(=O)N[C@H](C)C(=O)N[C@H](CCCCN)C(=O)N[C@H](C)C(=O)N[C@H](CC(C)C)C(=O)N[C@H](CC(N)=O)C(=O)N[C@H](C)C(=O)N[C@@H](C(=O)N[C@H](CC(C)C)C(=O)N[C@@H](C(=O)NCC(=O)N[C@H](C)C(=O)N[C@H](CC(N)=O)C(=O)N[C@H](C)C(N)=O)C(C)C)C(C)C)C(C)C)[C@H](C)O
notes: Synthetic all-D analog; also called D-Dermaseptin S4 L7K (27-mer)
B7: Control C (peptide)
peptide: Ac-ELEKGGLEGEKGGKELEK-NH2
notes: also called control peptide C; random coil control peptide (C)

Assays:
[1] = target: the molecule itself; assay: RP-HPLC temperature profiling, self-association (dimerization/oligomerization)
Description: (§1) The purity of the peptides was verified by analytical RP-HPLC and the peptides were characterized by mass spectrometry (LC/MS). Crude and purified peptides were analyzed on an Agilent 1100 series liquid chromatograph (Little Falls, Del., USA). Analytical runs were performed on a Zorbax 300 SB-C₈ column (150×2.1 mm I.D.; 5 μm particle size, 300 Å pore size) from Agilent Technologies using a linear AB gradient (1% acetonitrile/min) and a flow rate of 0.25 mL/min, where eluent A was 0.2% aqueous TFA, pH 2, and eluent B was 0.18% TFA in acetonitrile. Temperature profiling analyses were performed on the same column in 3° C. increments, from 5° C. to 80° C. using a linear AB gradient of 0.5% acetonitrile/min.
^atR denotes retention time in RP-HPLC at pH 2 and room temperature, and is a measure of overall peptide hydrophobicity. ^bThe mean residue molar ellipticities [θ]₂₂₂ (deg cm²/dmol) at wavelength 222 nm were measured at 5° C. in benign conditions (100 mM KCl, 50 mM NaH₂PO₄/Na₂HPO₄, pH 7.0) or in benign buffer containing 50% trifluoroethanol (TFE) by circular dichroism spectroscopy. ^cThe helical content (as a percentage) of a peptide relative to the molar ellipticity value of parent peptide (D-Piscidin 1 or D-Dermaseptin S4) in the presence of 50% TFE. ^dPA denotes self-association parameter (dimerization/oligomerization) of each peptide during RP-HPLC temperature profiling, which is the maximal retention time difference of (tR^t-tR⁵ for peptide analogs)-(tR^t-tR⁵ for control peptide C) within the temperature range; tR^t-tR⁵ is the retention time difference of a peptide at a specific temperature (tR^{t)} compared with that at 5° C. (tR⁵). The sequence of the random coil control peptide C is shown in Table 1. ^eAmphipathicity was determined by calculation of hydrophobic moment using hydrophobicity coefficients determined by reversed-phase chromatography; see methods for details. The amphipathicity values for D-Dermaseptin S4 and its analogs (residues 1-14) are shown in brackets.

[2] = target: the molecule itself; assay: RP-HPLC temperature profiling, 5 to 80 C, pH 2 (self-association)
Description: as §1
Control peptide C is a monomeric random coil peptide in both aqueous and hydrophobic media; thus, its linear decrease in peptide retention behavior with increasing temperature within the range of 5° C. to 80° C. represents only the general effects of temperature due to greater solute diffusivity and enhanced mass transfer between the stationary and mobile phase at higher temperatures. To allow for these general temperature effects, the data for the control peptide was subtracted from each temperature profile, as shown in FIG. 6B. Thus, the peptide self-association parameter, PA, represents the maximum change in peptide retention time relative to the random coil peptide C. […]

Row | Protein | PA (self-association parameter) [1] [min] | binding result [2]
1 | B1 | 0.69 | –
2 | B2 | 2.29 | –
3 | B3 | 1.29 | –
4 | B4 | 0.78 | –
5 | B5 | 0.95 | –
6 | B6 | 4.8 | –
7 | B7 | – | no binding
